Test [1] has as its system E8 dorsal root ganglion neurons. Kind of test: Survival and neurite outgrowth of dorsal root ganglion neurons / DRG assay with E. coli protein extracts. It counts as cell-based. Conditions: protein extracts of E. coli carrying human CNTF sequence in pCP93. The method, then: In addition, protein extracts were prepared from the same cells lysed by treatment with lysozyme followed by three cycles of freezing and thawing. […] No such activity could be detected in control extracts from the same host cells carrying the plasmid vector without the rCNTF gene.
Human CNTF sequence, engineered to lack intron sequences, has been inserted into the pCP93 vector and used to transform competent E. coli.

Test [2] relates to E8 chick ciliary ganglion neurons. Kind of test: Survival of dissociated E8 chick ciliary ganglion neurons. Type of test: cell-based. Conditions: increasing amounts of pure protein. The source says:
Ciliary neurotrophic factor activity may be evaluated using any CNTF-sensitive in vivo or in vitro system known in the art. For example, and not by way of limitation, in vitro systems have been developed which measure CNTF activity by quantitating 24-hour survival of embryonic (E8) chick ciliary ganglion (CG) neurons in monolayer cultures.
For example, ciliary ganglia may be collected from E8 chick embryos, dissociated (yielding approximately 20,000 cells per ganglion) and then diluted in HEBM medium containing 20 percent horse serum as described in Varon et al. (1979, Brain Res. 173:29-45). About fifty microliters of cell suspension containing neurons (2,000 cells) may then be seeded into microliter dishes and putative CNTF activity may be added. Culture plates may then be maintained at 37° C. in 5% CO2 for 24 hours, after which the cultures may be fixed by the addition of 200 μl 2 per cent glutaraldehyde in HEBM medium, and the number of surviving neurons may be determined visually by direct count under phase contrast microscopy.
Chick embryo ciliary ganglion cultures were created and maintained according to the method set forth in (Hughes et al., 1988, Nature 335 : 70-73).
(§1) Biological activity of recombinant CNTF was assayed on explants of chick embryo dorsal root ganglia (DRG) and dissociated cultures of ciliary ganglion (CG) neurons as described in Lindsay and Rohrer (1985, Devel. Biol 112:30-48). Briefly, DRG were dissected from chick embryos of 10 days incubation (E10) and 5-6 ganglia were explanted in 1 ml of a collagen gel matrix in 35 mm tissue culture dishes. After the gel had set, 1 ml of tissue culture growth medium F14 (Imperial Labs., U.K.) supplemented with 5% heat-inactivated horse serum (GIBCO) was added before adding human CNTF (1-20 l) to a final concentration of 100 pg to 100 ng/ml. CG were dissected from E8 chick embryos and incubated for 30 min in 0.25% trypsin (Worthington) in calcium- and magnesium-free phosphate buffered saline. The ganglia were then washed three times in F14 medium containing 5% horse serum before being dissociated to a single cell suspension by trituration through the bore of a Pasteur pipette. Enrichment for CG neurons was achieved by plating the cell suspension for 3.5 hr in a 60 mm dish, during which non-neuronal cells (fibroblasts and Schwann cells) attached firmly to the plastic while phase-bright neurons remained in suspension. The purified neurons were plated on polyornithine-laminin-coated 35 mm culture dishes at 8,000-10,000 neurons/dish. In explant cultures CNTF activity was determined by assessing the extent of fiber outgrowth in treated cultures compared to controls. Fiber outgrowth was scored on a scale of 0 to 5+, by comparing cultures to photographs of a dose-response of explanted DRG and NGF. In dissociated CG neuron cultures, CNTF activity was determined by counting at 48 hr the percentage of process-bearing neurons in control and CNTF-treated cultures. In all cases results were derived from triplicate cultures.

The test system of test [3] is E10 chick DRG. Kind of test: Fiber outgrowth from explants of E10 chick embryo dorsal root ganglia. Type of test: cell-based. As for the experimental part:
as §1, with “The ganglia were then washed three times in F14 medium containing 5% horse serum before being dissociated to a single cell suspension by trituration through the bore of a Pasteur pipette. Enrichment for CG neurons was achieved by plating the cell suspension for 3.5 hr in a 60 mm dish, during which non-neuronal cells (fibroblasts and Schwann cells) attached firmly to the plastic while phase-bright neurons remained in suspension. The purified neurons were plated on polyornithine-laminin-coated 35 mm culture dishes at 8,000-10,000 neurons/dish.” left out, “In all cases results were derived from triplicate cultures.” left out

Test [4] relates to Mediodorsal (MD) spinal cord neurons. Description: E14 rat mediodorsal spinal cord neuron cultures in defined medium. Type of test: cell-based. Conditions: CNTF 2 μl/ml (recombinant rat, E. coli extract), NGF 50 ng/ml at plating; day 7; Bradford. The source says: (§2) Sprague-Dawley rats (HSD) were used for all experiments. Pregnant rats were sacrificed by carbon dioxide asphyxiation, and the embryos were rapidly removed and placed in ice-cold Puck's saline G for further dissection.
(§3) Spinal cords were removed aseptically from rat embryos on the 14th day of gestation. The spinal cord was severed caudal to the bulb, freed of sensory ganglia and meninges. The cord was then subdivided into ventral and mediodorsal segments for separate cultures. The cord tissues were minced into small pieces and mechanically dissociated by trituration through a Pasteur pipet in defined culture medium consisting of 50% basal medium Eagle (BME; Gibco) and 50% Ham's nutrient mixture F12 (Gibco) supplemented with glucose (33 mM), glutamine (2 mM, NaHCO3 (15 mM), HEPES (10 mM), insulin (25 μg/ml), transferrin (100 μg/ml) putrescine (60 μM), progesterone (20 nM), Na selenite (30 nM), penicillin G (0.5 μg/ml), streptomycin (0.5 μg/ml), and bovine serum albumin (2.5 μg/ml). Trituration was repeated twice and the supernatants were pooled and filtered through a nylon (Nitex, Tetko) filter (40 μm). Total cell number yielded was determined by hemocytometer counting in the presence of trypan blue. Dissociated ventral cells were then plated at a density of 0.5 million cells/35 mm dish coated with poly-D-lysine (10 μg/ml). Dissociated mediodorsal cells were plated at a density of 1.5 million/35 mm dish coated with poly-D-lysine (10 μg/ml), poly-L-ornithine (10 μg/ml), or poly-L-ornithine with laminin (5 μg/ml). Treatments to these cultures were added at the time of plating. Cultures were maintained at 37° C. in a 95% air/5% CO2 atmosphere at nearly 100% relative humidity. Culture medium was changed every three to four days.

For test [5], the system named is Ventral spinal cord neurons. Kind of test: E14 rat ventral spinal cord neuron cultures in defined medium. Type of test: cell-based. Conditions: CNTF 2 μl/ml, NGF 50 ng/ml at plating; day 7.
Text: as §2, §3

Test [6] has as its system Ventral spinal cord neurons. Kind of test: Neurofilament (NF) assay in ventral spinal cord neuron cultures. It counts as cell-based, rat. Conditions: CNTF 10 ng/ml, NGF 50 ng/ml at plating; day 7. As for the experimental part: (§4) Sprague-Dawley rats (HSD or Zivic-Miller) were used for all experiments. Pregnant rats (E14) were sacrificed as described in 10.1.1.
Spinal cords were removed aseptically from rat embryos as described in 10.1.2. The cord tissues were minced into small pieces and incubated in 0.1% trypsin (GIBCO) and 0.01% deoxyribonuclease type 1 (Sigma) at 37° C. for 20 minutes. Trypsin solution was then removed, rinsed and replaced with medium consisting of 45% Eagle's minimum essential medium (MEM), 45% Ham's nutrient mixture F12 (F12), 5% fetal calf serum (GIBCO), 5% horse serum (GIBCO) glutamine (2 mM), penicillin G (0.5 U/ml), and streptomycin (0.5 ug/ml). […] Total cell number yielded was determined by hemocytometer counting in the presence of trypan blue. […]
After fixation of the cells in 4% paraformaldehyde at 4° C. for 2 hours, the cultures were then permeabilized and blocked according to the procedures described in Doherty et al. (1984, J. Neurochem. 42:1116-1122). Neurofilament protein was detected using a monoclonal antibody RT97 (Wood and Anderton, 1981, Biosci. Rep. 1:263-268) at a 1:1000 dilution. The reaction product was visualized using O-phenylenediamine (OPD) as a substrate and optical density was measured at 490 nm.

Test [7] has as its system AchE-containing ventral spinal cord neurons. Description: Count of AchE-containing neurons in ventral spinal cord cultures. Type of test: cell-based, rat. Conditions: CNTF 10 ng/ml at plating; 7 days. As for the experimental part: as §4
Spinal cords were removed aseptically from rat embryos as described in 10.1.2. The cord tissues were minced into small pieces and incubated in 0.1% trypsin (GIBCO) and 0.01% deoxyribonuclease type 1 (Sigma) at 37° C. for 20 minutes. Trypsin solution was then removed, rinsed and replaced with medium consisting of 45% Eagle's minimum essential medium (MEM), 45% Ham's nutrient mixture F12 (F12), 5% fetal calf serum (GIBCO), 5% horse serum (GIBCO) glutamine (2 mM), penicillin G (0.5 U/ml), and streptomycin (0.5 ug/ml). This was then mechanically dissociated twice by gentle trituration through a Pasteur pipet in the same medium, and the supernatants were pooled and filtered through a nylon filter (Nitex, Tetko; 40 um). Total cell number yielded was determined by hemocytometer counting in the presence of trypan blue. Dissociated ventral cells were then plated at a density of approximately 50,000 cells/cm^2 on dishes coated with poly-L-ornithine (10 ug/ml) and laminin (5 ug/ml). Treatments were given on the day of plating, except for delayed addition experiments in which treatments were given on days 2 or 6. Cultures were maintained at 37° C. in 95% air/5% CO2 atmosphere at nearly 100% relative humidity. Culture medium was changed every 3 to 4 days. […]

Test [8] relates to Ventral spinal cord neurons. Description: Choline acetyltransferase (CAT) activity in ventral spinal cord cultures. It counts as cell-based, rat. Conditions: CNTF 10 ng/ml, NGF 50 ng/ml, FGF 50 ng/ml at plating; after 7 days in culture. The method, then:
as §4
Spinal cords were removed aseptically from rat embryos as described in 10.1.2. The cord tissues were minced into small pieces and incubated in 0.1% trypsin (GIBCO) and 0.01% deoxyribonuclease type 1 (Sigma) at 37° C. for 20 minutes. Trypsin solution was then removed, rinsed and replaced with medium consisting of 45% Eagle's minimum essential medium (MEM), 45% Ham's nutrient mixture F12 (F12), 5% fetal calf serum (GIBCO), 5% horse serum (GIBCO) glutamine (2 mM), penicillin G (0.5 U/ml), and streptomycin (0.5 ug/ml). This was then mechanically dissociated twice by gentle trituration through a Pasteur pipet in the same medium, and the supernatants were pooled and filtered through a nylon filter (Nitex, Tetko; 40 um). Total cell number yielded was determined by hemocytometer counting in the presence of trypan blue. Dissociated ventral cells were then plated at a density of approximately 50,000 cells/cm^2 on dishes coated with poly-L-ornithine (10 ug/ml) and laminin (5 ug/ml). Treatments were given on the day of plating, except for delayed addition experiments in which treatments were given on days 2 or 6. Cultures were maintained at 37° C. in 95% air/5% CO2 atmosphere at nearly 100% relative humidity. Culture medium was changed every 3 to 4 days. A mitotic inhibitor, cytosine arabinoside (Ara C; 0.5 uM), was added on day 2 to reduce the number of nonneuronal cells. On day 7, cells were harvested for measurements of choline acetyltransferase (CAT; Fonnum, 1975 J. Neurochem. 24:407-409) and protein (Bradford, 1976, Annal. Biochem. 72:248-254) levels or fixed in 4% paraformaldehyde for NF assay (Doherty et al., 1984, J. Neurochem. 42:1116-1122) and immunocytochemistry. Some cultures were grown in defined medium consisting of 50% F12 and 50% MEM, glutamine (2 mM), insulin (5 ug/ml), transferrin (100 ug/ml), progesterone (20 nM), putrescine (10 uM), and sodium selenite (30 nM) (Bottenstein and Sato, 1979, PNAS 76:514-517). In these cultures sera-containing medium was replaced with defined medium on day 1.
Cultures were harvested by lysing the cells in a 20 mM Tris-HCl (pH 8.6) solution containing 0.1% Triton X-100. Two microliters of the cell lysate was removed and assayed for CAT activity according to the micro-Fonnum procedure (Fonnum, 1975, J. Neurochem. 24:407-409). The final substrate composition consisted of 0.2 mM [1-^14C] Acetyl-CoA (NEN, 54.4 mCi/mmol), 300 mM NaCl, 8 mM choline bromide, 20 mM EDTA, and 0.1 mM neostigmine in 50 mM NaH2PO4 (pH 7.4) buffer. At these enzyme and substrate concentrations, the enzymatic reaction was linear for 90-120 minutes. The specificity of the induction for CAT was tested by the addition of a specific inhibitor of CAT activity, N-hydroxyethyl-4-(1-napthylvinyl) pyridium (HNP), during the assay (White and Cavallito, 1970, J. Neurochem. 17:1579-1589).

Test [9] deals with GABAergic neurons (hippocampal cultures). Description: Effect of other neurotrophic factors on GABAergic hippocampal neurons in culture. Type of test: cell-based, rat. The method, then: Hippocampi were dissected from E18-19 rat embryos of Sprague-Dawley rats, and collected in F10 medium. The tissues were minced, rinsed twice with F10 medium (Gibco) and trypsinized with 0.25% trypsin (Gibco) for 20 minutes at 37° C. Trypsin was inactivated by the addition of a serum-containing medium composed of minimal essential medium (MEM) supplemented with fetal calf serum (FCS, 10%), glutamine (2 mM), penicillin (25 U/ml) and streptomycin (25 ug/ml). Dissociated cells obtained by gentle trituration were collected and centrifuged at low speed (500 rpm) for 30 seconds. The centrifugation was repeated twice, and the cell pellets were then resuspended in serum-containing medium. The cells were then plated onto 6 mm wells or 35 mm dishes that were coated with polyornithine (10 ug/ml) and laminin (10 ug/ml). In most of the experiments, the cells were plated at a low density of approximately 71,000 cells/cm^2. Five to six hours following the plating of cells, medium was changed to a serum-free medium containing 1% N3 and penicillin-streptomycin (25 units/ml and 25 ug/ml, respectively), at which time CNTF was added. Medium was changed every three to four days, with re-addition of the factor. […]

B1: recombinant human CNTF: human ciliary neurotrophic factor expressed in E. coli (protein, UniProt P26441 1-200, looked up)
Ciliary neurotrophic factor: MAFTEHSPLTPHRRDLCSRSIWLARKIRSDLTALTESYVKHQGLNKNINLDSADGMPVASTDQWSELTEAERLQENLQAYRTFHVLLARLLEDQQVHFTPTEGDFHQAIHTLLLQVAAFAYQIEELMILLEYKIPRNEADGMPINVGDGGLFEKKLWGLKVLQELSQWTVRSIHDLRFISSHQTGIPARGSHYIANNKKM
B1: the “CNTF activity in DRG assay” value in test [1] is reported as “CNTF activity”. Also, in test [2], the “activity towards chick ciliary neurons compared with rat CNTF” value is “as active as rat CNTF”. For the same molecule, the “maximum fiber outgrowth at saturating levels, relative to saturating levels of NGF” value in test [3] is reported as 50-75%.

B2: NGF: mouse nerve growth factor (protein, UniProt P01139 122-241, looked up)
Beta-nerve growth factor: SSTHPVFHMGEFSVCDSVSVWVGDKTTATDIKGKEVTVLAEVNINNSVFRQYFFETKCRASNPVESGCRGIDSKHWNSYCTTTHTFVKALTTDEKQAAWRFIRIDTACVCVLSRKATRRG
On to B2, for which the μg protein dish in test [4] was 20 μg protein dish. In test [5], the “CAT Activity” value turned out to be 621.25 ± 33.59 CPM/dish and the Protein was found to be 38 μg/dish. Besides, the “increase in NF content versus untreated controls” value in [6] was “did not produced any significant effect”. For the same molecule, the “increase in AchE-positive neurons versus untreated controls” value in test [7] was “small effect”. For the same molecule, the “increase in CAT activity” value in test [8] is listed as “no effect”. Further, in test [9], the “effect on / survival of GABAergic neurons” value was “not able to detect any effect”.
